Experiment [1] concerns E14.5 ventral mesencephalic precursor cultures. Briefly: Number of TH+ neurons in E14.5 ventral mesencephalic precursor cultures. The experiment is classed as cell-based, rat. The following applies: for effects on TH+ cell numbers, time course: 10 units, 1, 3 and 7 days in vitro; for increases in TH+ cell numbers compared with GDNF, FGF-2 or FGF-8 / increases in TH+ cell numbers compared with VM T1A conditioned medium: after 3 days; for TH+ cell numbers: increasing concentrations of partially purified Wnt, 3 days; for increase in TH+ neurons: partially purified Wnts, compared to controls (FIG. 10A). How it is done:
(§1) Ventral mesencephala and cerebral cortices from embryos E13.5-14.5 obtained from timed-mated Sprague-Dawley rats were dissected, mechanically dissociated and plated at a final density of 1×10^5 cells/cm2 on poly-D-lysine coated 12- or 24-well plates in a defined, serum-free medium (N2, consisting of a 1:1 mixture of F12 and DMEM containing insulin (10 ng/ml), transferrin (100 μg/ml), putrescine (100 μM), progesterone (20 nM), selenium (30 nM), glucose (6 mg/ml), and bovine serum albumin (1 mg/ml)). Purified Type 1 astrocytes were obtained from mixed glial cultures derived from the VM or CTX of P1 rats according to a standard protocol (Wagner et al., 1999). After shaking and replating into 12-well plates, astrocytes were grown to confluency in 15% fetal bovine serum-containing media and changed to N2 medium, at which time freshly dissected VM or CTX cells were plated on top of the astrocytes at a density of 1×10^5 cells/cm2. All factors were added once, at the initiation of culture, with the exception of 5-bromodeoxyuridine (BrdU), which was added 4-6 hours prior to fixation. Cultures were maintained in a humidified 5% CO2, 95% air incubator at 37° C. and fixed after given time periods with 4% paraformaldehyde for 45 minutes prior to immunocytochemical analysis.
B1A fibroblast lines stably overexpressing hemagglutanin-tagged Wnt-1a, 3a, or 5a (Shimizu H., 1997) were grown in standard complete media (DMEM+10% FBS) supplemented with 100 ug/ml G-418. For collection of conditioned media, cells were replated at low density in complete media and allowed to reach 50-75% confluency, at which point cells were washed and media was replaced with serum-free N2 (with 10 μM sodium butyrate) for 24 hours. Conditioned media from sister flasks was then harvested, pooled as lots and stored at −80° C. for up to 2 months. When compared to fresh CM, no loss of activity was observed when using this collection and storage routine. T1A CM was harvested using a similar procedure, with the exception that media was collected after 3 days in vitro.
For concentration, individual lots of CM were thawed at room temperature, divided into 80 ml aliquots, loaded onto Centricon-Plus 80 columns (Millipore) and concentrated via centrifugation according to the manufacturers instructions. Following concentration, aliquots were re-pooled and frozen at −80 C after a sample was taken for determination of protein content and Western blot analysis. In brief, 20 ug of protein was loaded onto a 10% polyacrylamide mini-gel and run under denaturing conditions at 150 V for approximately 30 minutes. After dry electroblot transfer onto PVDF membranes (Hybond P, Amersham Pharmacia Biotech, Upsalla, Sweden) and pre-incubation for 30 minutes in a blocking buffer consisting of 3% bovine serum albumin in Tris-Buffered Saline with […] Triton-X 100 (TBST), blots were incubated with mouse anti-hemagglutinin (Babco) diluted 1:1000 in TBST overnight at 4 C. After washing, blots were incubated with alkaline phosphatase-coupled goat anti-mouse IgG (Santa Cruz) diluted 1:1000 in TBST for 1 hour at room temperature. Blots were visualized using the Amersham ECF reagent and blue fluorescence quantitated using a Molecular Devices Storm 840 phosphoimager.
B1A fibroblast lines were cotransfected with the mFz8CRD-IgG/pRK5 and the pIRES puro 2 (Clontech, BD Bioscience, Erembodegem, Belgium) plasmids, using Lipofectamine Plus reagent (Invitrogen, Lidingo, Sweden) according to the instruction of the manufacturer. Upon selection for puromycin resistance (1 μg/ml Sigma, Stockholm, Sweden), clones were isolated and expanded. A clone overexpressing Fz8CRD 700× (real time RT-PCR analysis) was identified. Harvesting and partial purification of Fz8CRD conditioned media were performed as described previously. In all the blocking experiments performed, the Fz8CRD and B1A control partial purified conditioned medias were used at a final concentration of 125-250 μg/ml. […]

Experiment [2] deals with VM precursor cultures / Nurr1+ precursor cells. Briefly: BrdU incorporation (proliferation) in VM precursor cultures. It counts as cell-based, rat. The following applies: for increase in Nurr1 and BrdU double positive precursor cells (mitosis in Nurr1+ population): 1 day in vitro; for BrdU incorporation in VM precursor cultures: 3 days in vitro. How it is done:
as §1
Fixed cultures were incubated with one of the following antibodies, diluted appropriately in phosphate-buffered saline (PBS) containing 1% bovine serum albumin and 0.3% Triton-X 100: mouse anti-BrdU, 1:50 (DAKO, Denmark), mouse anti-β-tubulin, Type III (TuJ1), 1:250 (Sigma), mouse anti-TH, 1:1000 (Incstar, USA), rabbit anti-TH, 1:250 (PelFreeze); rabbit anti-Nurr1, 1:2000 (gift from Dr. T. Perlmann, Sweden), rabbit anti-Nurr1, 1:1000 (Santa Cruz, USA) or mouse anti-Nurr1, 1:250 (BD Transduction Laboratories, USA), rabbit anti Adh2 1:4000 (gift from Dr. R. Lindahl, South Carolina). Incubations were either carried out at 4° C. overnight, or at room temperature for 1 hour. Both processes yielded similar results. After washing, cultures were incubated for 1-3 hr with appropriate secondary antibodies (biotinylated 1:500; CY2-, FITC-, or rhodamine-coupled horse-anti-mouse IgG 1:100; or goat-anti-rabbit IgG 1:100; all from Vector, USA), in the same dilution buffer. Brightfield immunostaining was visualized with the Vector Laboratory ABC immunoperoxidase kit, using either NovaRed (red), or AEC (red), SG or 3-3′ dimaminobenzidine tetrahydrochloride (DAB 0.5 mg/ml)/nickel chloride (1.6 mg/ml) (gray/black), or VIP (violet) substrates. Double-staining was performed by sequential single staining as described. The order of staining was only critical for BrdU-double labeling, in which case the BrdU procedure was always performed second. […] Photos were acquired with a Zeiss Axioplan 100M microscope and collected with a Hamamatsu camera C4742-95 (with the QED imaging software).
Only clearly stained cells were counted as positive cells. Spheres were considered positive if they contained one or more positive cell. Quantitative immunocytochemical data on individual cells represent means and standard errors of counts obtained by a blinded observer from 10-20 non-overlapping fields (cells) or in the entire well (clusters), in each of 3-4 wells per condition from 3-4 independent experiments, unless stated otherwise. For each variable, initial statistical comparisons were performed by a global ANOVA, with multiple factors of dose, time point, treatment and/or region; if significant interactions between treatment and any other variable existed, data were further divided into separate times, doses or regions. Fisher's protected least significant difference was used post hoc to identify specific points at which the treatments differed from controls (or each other) only when significant interactions between factor treatment and other variables occurred. Significance for all tests was assumed at the level of p<0.05. […]
On the technique in general: Uptake of a labelled nucleoside into DNA is a usual measure of proliferation.

B1: Wnt-1: Partially purified conditioned media from stable fibroblast cell line engineered to secrete Wnt-1 ligand (protein)
chain: ANSSGRWWGIVNIASSTNLLTDSKSLQLVLEPSLQLLSRKQRRLIRQNPGILHSVSGGLQSAVRECKWQFRNRRWNCPTAPGPHLFGKIVNRGCRETAFIFAITSAGVTHSVARSCSEGSIESCTCDYRRRGPGGPDWHWGGCSDNIDFGRLFGREFVDSGEKGRDLRFLMNLHNNEAGRTTVFSEMRQECKCHGMSGSCTVRTCWMRLPTLRAVGDVLRDRFDGASRVLYGNRGSNRASRAELLRLEPEDPAHKPPSPHDLVYFEKSPNFCTYSGRLGTAGTAGRACNSSSPALDGCELLCCGRGHRTRTQRVTERCNCTFHWCCHVSCRNCTHTRVLHECL
modifications: left off: small tags and cut ends
As for B1, in experiment [1], the “effects on TH+ cell numbers, time course” value was “detected as early as after 1 day in vitro”; the “increases in TH+ cell numbers compared with GDNF, FGF-2 or FGF-8” value is “exceeded increases produced by known dopaminotrophic molecules”; the “increases in TH+ cell numbers compared with VM T1A conditioned medium” value is on record as “roughly equaled”; the “TH+ cell numbers” value is “robust dose-response increases”. Besides, in experiment [2], the “increase in Nurr1 and BrdU double positive precursor cells (mitosis in Nurr1+ population)” value was 3 fold; the “BrdU incorporation in VM precursor cultures” value (“BrdU incorporation” below) is recorded as “increased”.

B2: Wnt-2: Partially purified / conditioned media from Wnt-2 overexpressing fibroblast cell line (protein, UniProt P21552 26-360, looked up)
Protein Wnt-2: SWWYMRATGGSSRVMCDNVPGLVSRQRQLCHRHPDVMRAIGLGVAEWTAECQHQFRQHRWNCNTLDRDHSLFGRVLLRSSRESAFVYAISSAGVVFAITRACSQGELKSCSCDPKKKGSAKDSKGTFDWGGCSDNIDYGIKFARAFVDAKERKGKDARALMNLHNNRAGRKAVKRFLKQECKCHGVSGSCTLRTCWLAMADFRKTGDYLWRKYNGAIQVVMNQDGTGFTVANKRFKKPTKNDLVYFENSPDYCIRDREAGSLGTAGRVCNLTSRGMDSCEVMCCGRGYDTSHVTRMTKCECKFHWCCAVRCQDCLEALDVHTCKAPKSADWATPT
modifications: conditioned medium
notes: Partially purified / conditioned media from Wnt-2 overexpressing fibroblast cell line
In the case of B2, in experiment [1], the “increase in TH+ neurons” value is approximately 2 fold. In addition, in experiment [2], the “BrdU incorporation” value is “slight decrease”.

B3: Wnt-5a: Partially purified conditioned media from stable fibroblast cell line engineered to secrete Wnt-5a ligand (protein)
chain: IIGAQPLCSQLAGLSQGQKKLCHLYQDHMQYIGEGAKTGIKECQYQFRHRRWNCSTVDNTSVFGRVMQIGSRETAFTYAVSAAGVVNAMSRACREGELSTCGCSRAARPKDLPRDWLWGGCGDNIDYGYRFAKEFVDARERERIHAKGSYESARILMNLHNNEAGRRTVYNLADVACKCHGVSGSCSLKTCWLQLADFRKVGDALKEKYDSAAAMRLNSRGKLVQVNSRFNSPTTQDLVYIDPSPDYCVRNESTGSLGTQGRLCNKTSEGMDGCELMCCGRGYDQFKTVQTERCHCKFHWCCYVKCKKCTEIVDQFVCK
modifications: left off: small tags and cut ends
Take B3: in experiment [1], the “effects on TH+ cell numbers, time course” value is “detected as early as after 1 day in vitro”; the “increases in TH+ cell numbers compared with GDNF, FGF-2 or FGF-8” value is “exceeded increases produced by known dopaminotrophic molecules”; the “increases in TH+ cell numbers compared with VM T1A conditioned medium” value is “roughly equaled”; the “TH+ cell numbers” value was “robust dose-response increases”. For the same molecule, in experiment [2], the “increase in Nurr1 and BrdU double positive precursor cells (mitosis in Nurr1+ population)” value is recorded as “two”; the “BrdU incorporation” value was “not”.

B4: Wnt-7a: Partially purified / conditioned media from Wnt-7a overexpressing fibroblast cell line (protein, UniProt P24383 32-349, looked up)
Protein Wnt-7a: LGASIICNKIPGLAPRQRAICQSRPDAIIVIGEGSQMGLDECQFQFRNGRWNCSALGERTVFGKELKVGSREAAFTYAIIAAGVAHAITAACTQGNLSDCGCDKEKQGQYHRDEGWKWGGCSADIRYGIGFAKVFVDAREIKQNARTLMNLHNNEAGRKILEENMKLECKCHGVSGSCTTKTCWTTLPQFRELGYVLKDKYNEAVHVEPVRASRNKRPTFLKIKKPLSYRKPMDTDLVYIEKSPNYCEEDPVTGSVGTQGRACNKTAPQASGCDLMCCGRGYNTHQYARVWQCNCKFHWCCYVKCNTCSERTEMYTCK
modifications: conditioned medium
notes: Partially purified / conditioned media from Wnt-7a overexpressing fibroblast cell line
In the case of B4, the “increase in TH+ neurons” value in experiment [1] is given as “modest TH+ increases”. In addition, the “BrdU incorporation” value in experiment [2] is “BrdU+ increases similar to that of Wnt-1”.

The record behind these values is patent publication US20090087417A1, “METHODS FOR PROMOTING DOPAMINERGIC NEURONAL DEVELOPMENT BY USING NG4A-SUBFAMILY AND WNT-LIGANDS” (priority 2002, published 2009).
